These results are taken from the RNAGym collection of RNA variant scans (doi:10.1073/pnas.2313332121).

B1: TPR t1 (parent)
chain: GACCAAUCUGCCCUCAGAGCUCGAGAACAUCUUCGGAUGCAGAGGAGGCAGGCUUCGGUGGCGCGAUAGCGCCAACGUCCUCAACCUCCAAUGCAUCCCACCACAUGAUGAUGCCUGAAGAGCCUUGGUUUUUUG

The data set covers variants of B1. The data set can be described thus: polymerase ribozyme fitness, log enrichment relative to wild type (log ratio); higher = more active; in vitro selection for triplet polymerase activity. An outline of the steps: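 After PCR construction and transcription, each subunit's mutant library from a heterodimeric triplet polymerase ribozyme was annealed with a biotinylated primer, the partner subunit and triplets. Incubation was frozen, at −7 °C, and extended constructs were gel-excised, bound to streptavidin beads and amplified by RT-PCR, in one selection round done in triplicate. Fitness is the logarithm of a genotype's enrichment divided by that of the wild type, from inverse-variance-weighted replicate averages of Illumina-sequenced inputs and outputs. The base of the logarithm is 2, and genotypes needed ≥10 input reads and ≥1 read per output.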
Take A18G G113U G128U U132A: the “polymerase ribozyme fitness (log ratio)” value is -5.64.
As to U9G C11A U87A, the “polymerase ribozyme fitness (log ratio)” value was -0.55.
A26G G71U: the “polymerase ribozyme fitness (log ratio)” value is -3.23.
Consider C12A G48U G71C, for which the “polymerase ribozyme fitness (log ratio)” value is -1.56.
Next, C72G A105G: -1.94; A37C C53G G71C C82U C101A A119U: -2; G19C C22G C72U: -4.44.
For U9A G10A A46U G69U C79U C102G, the “polymerase ribozyme fitness (log ratio)” value is -3.8.
For the variant C12A C31U G35A C104G C115U, the “polymerase ribozyme fitness (log ratio)” value was -6.08.
Next, C15A C98U G117A: -4.11; U9G A100U G128A: -1.71; C8U C12A G45A C56A: 0.0537.
In the case of A43C C85G, the “polymerase ribozyme fitness (log ratio)” value is -3.37.
In the case of A2U G110C, the “polymerase ribozyme fitness (log ratio)” value is -6.03.
With U9A U21G A41U G45A U130G, the “polymerase ribozyme fitness (log ratio)” value is -4.18.
On to C20U C115U, for which the “polymerase ribozyme fitness (log ratio)” value was -1.73.
Consider U55G C76A, for which the “polymerase ribozyme fitness (log ratio)” value is -0.0105.
Next, C13G C70U: -1.62; C64U A111C U112C: -0.987.
In the case of U21C G45C C56U U109A A111U C124G it was -4.35; in that of G44A A103U, -5.44; in that of A18U A50U, -4.84.
As for C8A C11U A121U, the “polymerase ribozyme fitness (log ratio)” value was found to be 2.14.
In the case of A37U A66U it was -1.5; in that of C20U C102U, -2.92.
Take C12G C20U: the “polymerase ribozyme fitness (log ratio)” value was -0.703.
Turning to C40G G117U, the “polymerase ribozyme fitness (log ratio)” value was -3.26.
Next, G63C A103G: -5.66; U7C C11G A27U G35U G45A U59C A84G C101U A121U: -8.13; A5C C73G: -0.545.
Turning to G60A C114G, the “polymerase ribozyme fitness (log ratio)” value was -2.53.
For G48A C72G G77A U78A C79A G120A U130A, the “polymerase ribozyme fitness (log ratio)” value is -2.79.
Next, C20A C104A C123G: -4.45.
Next, G35U C101U: -6.26; C79U C80U U112A: -2.98; A43G C97U: -1.61.
As for A43C G45U C73A A91U G93A U112A G128C, the “polymerase ribozyme fitness (log ratio)” value was -5.37.
On to C72U C85A, for which the “polymerase ribozyme fitness (log ratio)” value was -1.82.
Take G10A C49G G63U: the “polymerase ribozyme fitness (log ratio)” value was -0.848.
Turning to C20G C85G, the “polymerase ribozyme fitness (log ratio)” value was -3.76.
Regarding A5C C8G C11A A37U C123U, the “polymerase ribozyme fitness (log ratio)” value turned out to be 0.423.
Turning to U9G G47C G60C A83C, the “polymerase ribozyme fitness (log ratio)” value is -3.63.
In the case of A18C C22G G63A U130G, the “polymerase ribozyme fitness (log ratio)” value was -5.14.
As to A43C G61U C64G A121G, the “polymerase ribozyme fitness (log ratio)” value is -6.23.
On to G35A C124G, for which the “polymerase ribozyme fitness (log ratio)” value is -2.
Take C12G G63A: the “polymerase ribozyme fitness (log ratio)” value is -0.827.
C40U C73U G93U U130G: the “polymerase ribozyme fitness (log ratio)” value was -2.36.
Consider C13G A43U A84G A121C U131G, for which the “polymerase ribozyme fitness (log ratio)” value is -1.74.
For the variant A5C G10A C34A C123U, the “polymerase ribozyme fitness (log ratio)” value was -0.78.
On to G17A A84C U87A U96G, for which the “polymerase ribozyme fitness (log ratio)” value is -4.16.
Regarding C3U U59G G113A, the “polymerase ribozyme fitness (log ratio)” value is -1.89.
Turning to C64U C123U, the “polymerase ribozyme fitness (log ratio)” value was determined as 1.23.
For C12G C62G, the “polymerase ribozyme fitness (log ratio)” value is -1.6.
As for A2U A16U C72G C86U, the “polymerase ribozyme fitness (log ratio)” value is -4.45.
In the case of C12G A46C, the “polymerase ribozyme fitness (log ratio)” value was -1.55.
Consider A26U A50U, for which the “polymerase ribozyme fitness (log ratio)” value was -4.75.
On to U38G C79U C97U, for which the “polymerase ribozyme fitness (log ratio)” value was -5.59.
Consider U7G G69A, for which the “polymerase ribozyme fitness (log ratio)” value was -2.34.
As to G17A C98U, the “polymerase ribozyme fitness (log ratio)” value was -5.09.
As for A43U A46U C56A, the “polymerase ribozyme fitness (log ratio)” value was -2.93.
Turning to C15U C85A C124U G128C U133G, the “polymerase ribozyme fitness (log ratio)” value is -4.88.
Turning to C8G C34A U78C C97A G107A, the “polymerase ribozyme fitness (log ratio)” value is -3.66.
In the case of A24G A37G G47A G120C, the “polymerase ribozyme fitness (log ratio)” value was -1.98.
On to C13U A16G A121U U129A, for which the “polymerase ribozyme fitness (log ratio)” value was determined as 1.78.
On to A2G C12A C85A G113C, for which the “polymerase ribozyme fitness (log ratio)” value was -5.2.
With G44A G60U A108G, the “polymerase ribozyme fitness (log ratio)” value is -2.88.
Consider G39C G71A, for which the “polymerase ribozyme fitness (log ratio)” value is -1.21.
For C3U A27U G61U, the “polymerase ribozyme fitness (log ratio)” value is -2.61.
Next, A68G C94G G122A: -5.12; C53A C104A: -1.8; C79A G117U: -3.95.
For G39U G52C A95U C115A A118G, the “polymerase ribozyme fitness (log ratio)” value is -3.5.
Next, U21A U54C G93C: -1.26.
With G77U C89A U109A, the “polymerase ribozyme fitness (log ratio)” value was -6.3.
In the case of C49A G51C G57C C72U C115G it was -3.69; in that of C22A C82U A90U U112A, -4.93.
For A43G G63C C82G, the “polymerase ribozyme fitness (log ratio)” value is -4.47.
As for C56A C79U U87A, the “polymerase ribozyme fitness (log ratio)” value is -0.983.
G52A C85G: the “polymerase ribozyme fitness (log ratio)” value was -1.03.
On to U116A U133C, for which the “polymerase ribozyme fitness (log ratio)” value was -3.8.
G17C C123A: the “polymerase ribozyme fitness (log ratio)” value is -2.92.
U7G C12G C49A G69U: the “polymerase ribozyme fitness (log ratio)” value is 1.21.
As for G10U A29U C53G, the “polymerase ribozyme fitness (log ratio)” value was -2.58.
